Reference: publication PMC8151509
Where a chain is given by its changes, count along the chain named. Names may count otherwise.

Tests used:
[1] = target: C1qstem_nc2, P02745;P02746; test: SPR; settings: chain shown with the change; immobilized C1qstem_nc2; parent: est. 100; read off a plot
[2] = target: C1qCLR_nc2 (wild type, devoid of the additional GPP triplets), P02745;P02747; test: SPR; settings: chain shown with the change; immobilized C1qCLR_nc2; parent: est. 100; read off a plot
C1qCLR_nc2 B_K65E = C1qCLR_nc2 B_K65E (UniProt P02745); test: SPR; LAIR-1 Ig-like domain injected at increasing concentrations (4-128, 4-256 or 3.125-400 µM) over immobilized C1q, rC1q variants, C1qCLR_nc2 variants or C1qstem_nc2 (CM5, amine coupling); 25 °C; 50 mM Tris, 150 mM NaCl, 2 mM CaCl2, 0.05% surfactant P20, pH 7.5; KD from Req versus concentration, steady-state model
C1qCLR_nc2 A_R72E = C1qCLR_nc2 A_R72E (UniProt P02745); test: as above
C1qstem_nc2 = C1qstem_nc2 (UniProt P02745); test: as above
[3] = target: C1qCLR_nc2 (wild type, devoid of the additional GPP triplets) (UniProt P02745); test: as above

Sequence of C1qstem_nc2, P02745;P02746 (chain, as listed by the source, chain 1 of 3): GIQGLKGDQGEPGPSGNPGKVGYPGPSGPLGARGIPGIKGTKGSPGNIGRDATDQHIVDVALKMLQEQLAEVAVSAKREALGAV
Sequence of C1qstem_nc2, P02745;P02746 (chain, as listed by the source, chain 2 of 3): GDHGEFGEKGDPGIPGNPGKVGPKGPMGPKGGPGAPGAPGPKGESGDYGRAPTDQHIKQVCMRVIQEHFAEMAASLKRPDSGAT
Sequence of C1qstem_nc2, P02745;P02746 (chain, as listed by the source, chain 3 of 3): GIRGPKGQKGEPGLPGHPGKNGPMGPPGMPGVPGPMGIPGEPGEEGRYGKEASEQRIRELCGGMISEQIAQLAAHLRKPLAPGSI
Sequence of C1qCLR_nc2 (wild type, devoid of the additional GPP triplets), P02745;P02747 (chain, as listed by the source, chain 1 of 3): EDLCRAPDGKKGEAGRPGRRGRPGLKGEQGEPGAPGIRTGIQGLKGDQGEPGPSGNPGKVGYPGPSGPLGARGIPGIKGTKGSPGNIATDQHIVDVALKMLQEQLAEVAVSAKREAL
Sequence of C1qCLR_nc2 (wild type, devoid of the additional GPP triplets), P02745;P02747 (chain, as listed by the source, chain 2 of 3): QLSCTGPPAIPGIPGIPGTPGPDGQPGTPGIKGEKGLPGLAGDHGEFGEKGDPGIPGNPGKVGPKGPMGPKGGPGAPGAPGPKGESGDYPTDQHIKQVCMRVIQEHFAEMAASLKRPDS
Sequence of C1qCLR_nc2 (wild type, devoid of the additional GPP triplets), P02745;P02747 (chain, as listed by the source, chain 3 of 3): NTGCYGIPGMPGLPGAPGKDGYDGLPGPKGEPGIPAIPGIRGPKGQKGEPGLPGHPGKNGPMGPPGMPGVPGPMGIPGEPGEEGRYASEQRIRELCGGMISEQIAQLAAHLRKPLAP

B1: LAIR-1 Ig-like domain, wild type, Q6GTX8 P107R (protein)
chain: QEEDLPRPSISAEPGTVIPLGSHVTFVCRGPVGVQTFRLERDSRSTYNDTEDVSQASPSESEARFRIDSVREGNAGLYRCIYYKPRKWSEQSDYLELLVKE
[1]
  percent of parent (% of LAIR-1 WT binding): 69
[2]
  percent of parent (% of LAIR-1 WT binding): 60

B2: LAIR-1 Ig-like domain, wild type (domain or fragment)
chain: B1 chain with R86P
C1qCLR_nc2 B_K65E
  Kd: 189 µM
C1qCLR_nc2 A_R72E
  Kd: 295 µM
C1qstem_nc2
  Kd: 175 µM
[3]
  Kd: 179 µM

B3: LAIR-1 Ig-like domain, wild type, Q6GTX8 I102L (protein)
chain: B1 chain with I81L, R86P
[1]
  percent of parent (% of LAIR-1 WT binding): 20
[2]
  percent of parent (% of LAIR-1 WT binding): 21

B4: LAIR-1 Ig-like domain, wild type, Q6GTX8 E72K (protein)
chain: B1 chain with E51K, R86P
[1]
  percent of parent (% of LAIR-1 WT binding): 21
[2]
  percent of parent (% of LAIR-1 WT binding): 21

B5: LAIR-1 Ig-like domain, wild type, Q6GTX8 E61A (protein)
chain: B1 chain with E40A, R86P
[1]
  percent of parent (% of LAIR-1 WT binding): 6
[2]
  percent of parent (% of LAIR-1 WT binding): 11

B6: LAIR-1 Ig-like domain, wild type, Q6GTX8 E111K (protein)
chain: B1 chain with R86P, E90K
[1]
  percent of parent (% of LAIR-1 WT binding): 34
[2]
  percent of parent (% of LAIR-1 WT binding): 36
